Assay results taken from patent publication US20200093866A1, “Use of selected single cobrotoxin molecule as an analgesic” (priority 2018, published 2020).

Columns and labels:
[1] = Quantitative microdialysis of unbound brain extracellular fluid (bECF) concentration after IV injection; assay type: in vivo, rat; settings: rats, 125I-labeled, 120 μg, dialysate over 360 minutes, FIG. 4
Source text: The estimated molecular weights of Chain A, Cobrotoxin, Chain A, Cobrotoxin B are 6.9±0.6 KDa; the estimated molecular weights of a cobrotoxins complexes extracted from crude venom ranged from approximately 6.5 KDa to 15 KDa. Quantitative microdialysis (QMD) is used to determine the absolute unbound brain extracellular fluid (bECF) concentration of Chain A, Cobrotoxin, Chain A, Cobrotoxin B, and the cobrotoxins complexes. QMD is the only technique that enables sampling of bECF in conscious animals and provides direct evidence of exposure at extracellular target sites (Kielbasa and Stratford, Jr. 2015)
QMD consists of implanting a probe in rat (FIG.-3). The membrane of the probe will allow the exchange of perfusate with bECF, so the concentration of Chain A, Cobrotoxin, Chain A, Cobrotoxin B, and a cobrotoxins complexes in bECF could be measured through dialysate. […] In response, an in vivo recovery rate test of the probe (MD-2200) was performed on 125I-labeled Chain A, Cobrotoxin, Chain A, Cobrotoxin B, and a cobrotoxins complexes, each with three different concentrations of 5, 25, and 50 ng/ml as perfusate, with a flow rate of 2 μL/min was perfused through the probe. During microdialysis, the dialysate was collected every 10 minutes for an hour, then tested using SN629B-radioimmunoassay counter to calculate cpm. […] The recovery rate (by loss) % was calculated as: […]

[2] = tested on: Kunming mice; test: Acetic acid writhing test, nasal administration; assay type: in vivo; settings: for frequency of writhing induced by acetic acid: 30, 45 or 60 μg/kg nasal; for frequency of writhing induced by acetic acid / ED50 of the anti-nociceptive effect of acetic acid induced writhing / time at which analgesic effect started: mice; for duration of analgesic effect / ED50 of the anti-nociceptive effect of acetic acid induced writhing / time at which analgesic effect started: nasal administration; for duration of analgesic effect: after drug administration
Description: Writhing test for the evaluation of analgesic effect by nasal administration METHOD: A total number of 60 Kunming mice were used, 10 per group, with a weight of 20±2 g. […] The analgesic effect started at 30 minutes and lasted at least for 6 hours after drug administration.

[3] = target: T1, nAChR (Rattus norvegicus, UniProt P09660+P25108+P25110); test: 125I labeled-αBtx-nAChR binding inhibition test (radio-immunoprecipitation); settings: nAChR crude extract from rat skeletal muscle; approximate
T1 construct: nAChR crude extract from rat skeletal muscle; from tissue; host or cells: rat skeletal muscle (crude extract)
Source text: As shown in FIG.-2, a total of 12 fractions from the aforementioned ion-exchange chromatography were further desalted and purified by a reverse-phase HPLC (RP-HPLC) with Vydac RP-C18 (4.6×250 mm, 5.0 um). Fractions A and B were identified as high-affinity cobrotoxins with enhanced binding ability to nAChR in a later 125I labeled-αBtx-nAChR binding inhibition test. • 2) Screening and selection of single cobrotoxin molecule with high affinity binding to nAChR for better drug target engagement The 125I labeled-α-bungarotoxin(αBtx)-nAChR binding inhibition test was performed to evaluate the affinities of different cobrotoxins molecules. […] Higher the affinity of cobrotoxin with nAChR, greater the inhibitory rate toward α-bungarotoxin's binding to nAChR. In our radio-immunoprecipitation test, only nAChR bonded α-bungarotoxin will be precipitated with nicotinic acetylcholine antibody (mAb 35) and Rabbit Anti-Rat IgG, whilst unbounded α-bungarotoxin will be washed out. By testing the concentration of bonded α-bungarotoxin, we can determine the inhibitory rates of different cobrotoxins molecules isolated in step 1).
Calculation of “125I-αBtx-nAChR binding inhibitory rate (%)” […]
The 125I-αBtx-nAChR binding inhibition experiment process is performed and described in following sequence: • i. […] The (Bq) value per second was measured using the gamma radioimmunoassay counter.

[4] = tested on: Kunming mice; test: Respiratory inhibition test; assay type: in vivo; settings: effective dose of 60 μg/kg, 10 Kunming mice
Source text: 4) Respiratory inhibition test Chain A, Cobrotoxin and Chain A, Cobrotoxin B were separately administered to 10 Kunming mice of 20±2 g.

[5] = tested on: Wistar rats; test: Tail flick test (thermal radiation), Periaqueductal Gray injection; assay type: in vivo; settings: PAG injection; for latency induced by thermal radiation (tail flick): 1.5, 3.0 and 6.0 μg/kg; for time at which analgesic effect appeared / time at which analgesic effect peaked: after drug administration; for maximum increase of pain threshold: tail flick
Description: Most commonly, an intense light beam is focused on the animal's tail and a timer starts. When the animal flicks its tail, the timer stops and the recorded time (latency) is a measure of the pain threshold.
METHODS: Periaqueductal Gray (PAG) was injected with selected cobrotoxin molecule in rats, and the central analgesic effect was evaluated by the tail flick due to thermal radiation. 20 Wistar rats with a weight of 200±20 g were divided into 2 groups, 10 per group. […] The analgesic effect of Chain A, Cobrotoxin and Chain A, Cobrotoxin B appeared in 10˜15 minutes and peaked at 25˜30 minutes after drug administration. The maximum increase of pain threshold was over 200%.

[6] = tested on: Kunming mice; test: Acetic acid writhing test, oral administration; assay type: in vivo; settings: for frequency of writhing induced by acetic acid: 160, 320 or 480 μg/kg oral; for ED50 of the anti-nociceptive effect of acetic acid induced writhing: oral administration
Source text: Writhing test for the evaluation of analgesic effect by oral administration METHOD: A total number of 60 Kunming mice were used, 10 per group, with a weight of 20±2 g.

[7] = tested on: Kunming mice; test: Acetic acid writhing test, parenteral (iv) injection; assay type: in vivo; settings: for inhibitory rate of mice writhing / time at which analgesic effect started: 60 μg/kg iv; for inhibitory rate of mice writhing: 90 minutes after administration; for time at which analgesic effect started / frequency of writhing induced by acetic acid / ED50 of the anti-nociceptive effect of acetic acid induced writhing: mice; for frequency of writhing induced by acetic acid: 30, 45 or 60 μg/kg iv; for ED50 of the anti-nociceptive effect of acetic acid induced writhing: iv
Description: Writhing test for the evaluation of analgesic effect by parenteral injection The writhing test is a chemical method used to induce pain of peripheral origin by injection of irritant principles like acetic acid in mice. Analgesic effect of the test compound is inferred from the decrease in the frequency of writhing.
METHOD: A total number of 60 Kunming mice were used, 10 per group, with a weight of 20±2 g. […] At dose of 60 μg/kg (iv), The analgesic effect started at 30 minutes, and could reach 60˜70% inhibitory rate of mice writhing at 90 minutes after administration. The ED50 of the anti-nociceptive effect of acetic acid induced writhing was 40˜50 μg/kg in the writhing test for Chain A, Cobrotoxin and Chain A, Cobrotoxin B.

[8] = tested on: mice; settings: i.c.v. injection, mice (Chen and Robinson, 1990); cited from earlier work

T1 sequence (P25108 21-457): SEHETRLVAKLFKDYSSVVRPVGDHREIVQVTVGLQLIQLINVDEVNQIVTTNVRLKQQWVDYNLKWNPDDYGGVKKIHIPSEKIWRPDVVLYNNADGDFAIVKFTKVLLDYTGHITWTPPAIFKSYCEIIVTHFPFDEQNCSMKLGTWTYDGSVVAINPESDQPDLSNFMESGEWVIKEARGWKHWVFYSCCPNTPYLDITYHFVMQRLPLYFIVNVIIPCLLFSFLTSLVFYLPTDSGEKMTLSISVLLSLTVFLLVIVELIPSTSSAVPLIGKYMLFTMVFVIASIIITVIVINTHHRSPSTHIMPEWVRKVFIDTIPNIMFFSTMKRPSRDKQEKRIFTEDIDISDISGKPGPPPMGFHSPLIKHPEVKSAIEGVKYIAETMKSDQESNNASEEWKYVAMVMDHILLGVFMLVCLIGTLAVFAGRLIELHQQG
T1 sequence (P25110 22-517): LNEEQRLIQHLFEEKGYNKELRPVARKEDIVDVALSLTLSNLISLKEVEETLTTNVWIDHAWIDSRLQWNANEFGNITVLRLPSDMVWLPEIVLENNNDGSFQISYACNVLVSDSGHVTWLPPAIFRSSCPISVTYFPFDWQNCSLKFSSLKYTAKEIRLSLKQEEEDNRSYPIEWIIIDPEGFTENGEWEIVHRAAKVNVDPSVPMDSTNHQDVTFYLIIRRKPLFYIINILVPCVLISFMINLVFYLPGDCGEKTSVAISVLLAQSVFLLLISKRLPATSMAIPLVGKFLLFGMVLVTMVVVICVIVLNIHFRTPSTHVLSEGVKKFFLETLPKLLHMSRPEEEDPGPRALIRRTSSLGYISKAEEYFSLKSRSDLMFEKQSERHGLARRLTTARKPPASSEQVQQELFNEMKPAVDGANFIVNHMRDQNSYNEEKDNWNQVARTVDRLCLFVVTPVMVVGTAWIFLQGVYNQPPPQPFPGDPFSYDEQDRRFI
T1 sequence (P09660 21-494): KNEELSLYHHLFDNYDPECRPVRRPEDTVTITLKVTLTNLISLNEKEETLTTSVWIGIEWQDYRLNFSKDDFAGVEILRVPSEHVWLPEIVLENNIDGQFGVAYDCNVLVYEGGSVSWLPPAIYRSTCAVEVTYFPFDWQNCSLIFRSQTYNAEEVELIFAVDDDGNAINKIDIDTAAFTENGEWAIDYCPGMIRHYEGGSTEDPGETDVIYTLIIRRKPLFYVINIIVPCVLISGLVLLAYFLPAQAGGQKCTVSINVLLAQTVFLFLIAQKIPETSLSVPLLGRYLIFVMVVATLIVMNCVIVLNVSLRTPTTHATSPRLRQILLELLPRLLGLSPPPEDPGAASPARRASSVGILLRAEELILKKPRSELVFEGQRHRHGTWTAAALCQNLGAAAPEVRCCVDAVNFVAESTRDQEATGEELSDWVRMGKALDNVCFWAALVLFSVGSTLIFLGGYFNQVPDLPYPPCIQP
T1 sequence (P25109 24-501 partner): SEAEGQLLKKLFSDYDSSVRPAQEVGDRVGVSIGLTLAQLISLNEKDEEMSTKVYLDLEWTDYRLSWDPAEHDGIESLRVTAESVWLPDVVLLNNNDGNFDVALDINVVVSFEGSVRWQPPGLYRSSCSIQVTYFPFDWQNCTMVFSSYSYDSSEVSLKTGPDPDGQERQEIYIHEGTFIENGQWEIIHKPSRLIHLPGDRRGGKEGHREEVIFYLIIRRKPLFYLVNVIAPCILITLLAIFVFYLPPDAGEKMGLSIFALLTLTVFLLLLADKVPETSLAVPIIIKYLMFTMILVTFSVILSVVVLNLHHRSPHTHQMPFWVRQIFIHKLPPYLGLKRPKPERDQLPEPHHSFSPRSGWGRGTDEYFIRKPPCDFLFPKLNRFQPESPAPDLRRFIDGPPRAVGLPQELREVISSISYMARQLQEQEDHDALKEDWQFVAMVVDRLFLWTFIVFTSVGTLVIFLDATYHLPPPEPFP

Row | Molecule | time course of reaching bECF brain concentration versus cobrotoxins complexes [1] | frequency of writhing induced by acetic acid [2] | duration of analgesic effect [2] [h] | ED50 of the anti-nociceptive effect of acetic acid induced writhing [2] | time at which analgesic effect started [2] [min] | 125I-αBtx-nAChR binding inhibitory rate [3] | respiratory inhibition [4] | latency induced by thermal radiation (tail flick) [5] | ED50 of the antinociceptive effect of thermal radiation-induced tail flick [5] | time at which analgesic effect appeared [5] | time at which analgesic effect peaked [5] | maximum increase of pain threshold [5] | frequency of writhing induced by acetic acid [6] | ED50 of the anti-nociceptive effect of acetic acid induced writhing [6] | inhibitory rate of mice writhing [7] | time at which analgesic effect started [7] [min] | frequency of writhing induced by acetic acid [7] | ED50 of the anti-nociceptive effect of acetic acid induced writhing [7] | antinociceptive response in tail-flick test [8]
1 | Chain A, Cobrotoxin B | always ahead of the cobrotoxins complexes in reaching a specific concentration | dose-dependent decrease | ≥ 6 | 38˜46 μg/kg | 30 | 40%-50% | No respiratory inhibition was observed | dose-dependent increase | 3.3˜4.0 μg/kg | 10˜15 minutes | 25˜30 minutes | over 200% | dose-dependent decrease | 300˜350 μg/kg | 60˜70% | 30 | dose-dependent decrease | 40˜50 μg/kg | –
2 | cobrotoxin (protein, UniProt P60770 22-83, looked up) Cobrotoxin: LECHNQQSSQTPTTTGCSGGETNCYKKRWRDHRGYRTERGCGCPSVKNGIEINCCTTDRCNN | – | – | – | – | – | – | – | – | – | – | – | – | – | – | – | – | – | – | produced an antinociceptive response
3 | Chain A, Cobrotoxin (protein, UniProt P60770 22-83, looked up) Cobrotoxin: LECHNQQSSQTPTTTGCSGGETNCYKKRWRDHRGYRTERGCGCPSVKNGIEINCCTTDRCNN | always ahead of the cobrotoxins complexes in reaching a specific concentration | dose-dependent decrease | ≥ 6 | 38˜46 μg/kg | 30 | 40%-50% | No respiratory inhibition was observed | dose-dependent increase | 3.3˜4.0 μg/kg | 10˜15 minutes | 25˜30 minutes | over 200% | dose-dependent decrease | 300˜350 μg/kg | 60˜70% | 30 | dose-dependent decrease | 40˜50 μg/kg | –
